In US20140329320A1 (OBSCHESTVO S OGRANICHENNOI OTVETSTVENNOSTYU TEKHNOPHARMA, published 2014):

T1: chicken ovalbumin protein (chicken, UniProt P01012 2-386)
T1 construct: Immobilized in wells as negative control of the MIF assay; also called nonspecific protein; negative control
T1 sequence: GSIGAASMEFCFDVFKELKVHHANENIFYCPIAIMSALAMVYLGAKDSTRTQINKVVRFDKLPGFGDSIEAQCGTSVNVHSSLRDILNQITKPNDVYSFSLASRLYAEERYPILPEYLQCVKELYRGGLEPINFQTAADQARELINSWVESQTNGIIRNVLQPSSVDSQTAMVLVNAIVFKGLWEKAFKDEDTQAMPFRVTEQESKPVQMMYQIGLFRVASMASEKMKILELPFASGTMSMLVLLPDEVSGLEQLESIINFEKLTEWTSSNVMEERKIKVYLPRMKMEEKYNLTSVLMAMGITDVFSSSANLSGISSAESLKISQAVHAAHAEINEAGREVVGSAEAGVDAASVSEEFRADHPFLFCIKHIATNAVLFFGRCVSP


Target: T1, chicken ovalbumin protein
Experiment: microimmunofluorescence (MIF) on immobilized antigen, anti-HA and FITC secondary detection

Binder | binding result
aCt1 nanoantibody (VHH, also called single domain nanoantibody aCt1) VHH: QVQLVESGGGSVQAGGSLRLSCTTSHYVASNSCMAWFRQAPGKKREGVASISRRADITFYADSVKERFVISRDNSERTLYLQMNSLKPEDTAMYYCAADLSYCGLTEEGYNHWGQGTQVTVSS | no binding (tested: 10 µ/ml)
aCt2 nanoantibody (VHH, also called single domain nanoantibody aCt2) VHH: QVQLVESGGGSVQAGGSLRLHCASSGYVEARILMGWFRQAPGKEREGVAAIYIGDGTTDYGDSVKGRFTVSQDGAKNAIYLHMYDVKPEDAATYYCAAGIMPWYRTWSGRLNVGDFDSWGQGTQVTVSS | no binding (tested: 10 µ/ml)
